Measured values: article PMC3202870

Molecular target: PA63, the cell-associated furin-cleavage product of Bacillus anthracis protective antigen (PA83) (Bacillus anthracis)
Test: SDS-PAGE and phosphoimaging of 125I-PA recovered from cells

PA63, the cell-associated furin-cleavage product of Bacillus anthracis protective antigen (PA83) (domain or fragment)
stoichiometry N: 7
